B1: SH3BP2 peptide 410-425 (SH3 domain-binding protein 2), 16-mer library wild type / TNKS ANK (TNKS 12 ANK repeats, residues 174-649) (parent)
chain 1: LPHLQRSPPDGQSFRS
chain 2: TGVPAVSGALRELLEACRNGDVSRVKRLVDAANVNAKDMAGRKSSPLHFAAGFGRKDVVEHLLQMGANVHARDDGGLIPLHNACSFGHAEVVSLLLCQGADPNARDNWNYTPLHEAAIKGKIDVCIVLLQHGADPNIRNTDGKSALDLADPSAKAVLTGEYKKDELLEAARSGNEEKLMALLTPLNVNCHASDGRKSTPLHLAAGYNRVRIVQLLLQHGADVHAKDKGGLVPLHNACSYGHYEVTELLLKHGACVNAMDLWQFTPLHEAASKNRVEVCSLLLSHGADPTLVNCHGKSAVDMAPTPELRERLTYEFKGHSLLQAAREADLAKVKKTLALEIINFKQPQSHETALHCAVASLHPKRKQVTELLLRKGANVNEKNKDFMTPLHVAAERAHNDVMEVLHKHGAKMNALDTLGQTALHRAALAGHLQTCRLLLSYGSDPSIISLQGFTAAQMGNEAVQQILSESTPIRTSD
B2: TPTE2 peptide 94-109 (Phosphatidylinositol 3,4,5-trisphosphate 3-phosphatase TPTE2), 16-mer library wild type / TLN1 PTB (TLN1 Phosphotyrosine-binding (PTB) domain, residues 309-401) (parent)
chain 1: DLIFTDSKLYIPLEYR
chain 2: GVSFFLVKEKMKGKNKLVPRLLGITKECVMRVDEKTKEVIQEWNLTNIKRWAASPKSFTLDFGDYQDGYYSVQTTEGEQIAQLIAGYIDIILK

Variants of: B1
Experiment: proteomic peptide phage display deep mutational scan (ProP-PD DMS): M13 P8 16-mer library selected against immobilised GST-tagged bait for four days (rounds), NGS of the eluted pools per day and pseudo-replica
Settings: with TNKS ANK (TNKS 12 ANK repeats, residues 174-649); bait immobilised on MaxiSorp plates (10 µg), library pre-cleared on GST, 2 h binding at 4 °C, five washes; one round per day, days 1-4; value from days 2 and 3; keep out of graded; scale: average fractional NGS count over selection days 2 and 3

Screen value of substitutions, site by site:
chain 1 Q5: I 7.42e-05 | R 6.18e-05
chain 1 S13: R 3.04e-05 | W 0.000125 | K 0
chain 1 L4: R 2.25e-05 | K 3.15e-05
chain 1 R6: K 0 | T 0 | Q 0 | A 0 | E 0 | V 4.06e-05
chain 1 P8: G 8.51e-05 | F 0.000116 | W 7.62e-05
chain 1 G11: D 0.000101 | E 0 | R 2.25e-05 | L 0 | A 0
chain 1 F14: R 2.25e-05
chain 1 H3: D 4.19e-05 | S 9.56e-05 | K 5.51e-05 | R 3.96e-05
chain 1 R15: Y 0.000124
chain 1 Q12: R 6.14e-05 | D 6.89e-05
chain 1 P9: M 0.000123 | V 0 | I 4.06e-05 | L 0
chain 1 D10: N 0 | H 0 | W 7.2e-05 | R 4.95e-05 | S 7.49e-05 | M 3.11e-05 | F 0
chain 1 S7: G 0 | W 1.87e-05 | A 8.68e-05 | R 8.27e-05
chain 1 P2: K 3.03e-05 | W 0 | Y 4.27e-05

Variants of: B2
Experiment: as above
Settings: with TLN1 PTB (TLN1 Phosphotyrosine-binding (PTB) domain, residues 309-401); bait immobilised on MaxiSorp plates (10 µg), library pre-cleared on GST, 2 h binding at 4 °C, five washes; one round per day, days 1-4; value from days 2 and 3; keep out of graded; scale: average fractional NGS count over selection days 2 and 3

Screen value: each site, then its substitutions
chain 1 Y15: A 0.00819 | F 0.000157 | M 0.00159 | H 0.000355 | Q 0.00142 | D 0.00294 | N 0.000999 | W 0.00208 | S 0.00054 | P 0.00117 | I 0.00364 | E 0.00244 | K 0.000539 | T 0.0011 | G 0.000939 | L 0.00052 | R 4.1e-05 | V 0.000703
chain 1 P12: A 0 | W 0 | E 0
chain 1 I11: Y 5.14e-05 | L 0.00308 | E 0.000129 | M 3.76e-05 | N 7.83e-05 | K 3.45e-05 | Q 7.15e-05 | H 0.000432 | R 0.000323 | F 6.22e-05 | T 0.000474 | D 2.74e-05 | S 7.21e-05 | V 0.0012
chain 1 L2: Q 0 | T 0.000185 | N 2.74e-05 | M 0.00204 | P 0.000184 | S 3.05e-05 | F 5.85e-05 | I 0.000173 | A 0.000378 | G 0.000486 | H 0.000178 | Y 0.000116 | D 9.22e-05 | V 0.00592 | E 0.000516 | W 4.75e-05
chain 1 K8: L 0.000141 | V 0 | E 0.000109 | T 9.24e-05 | I 0 | S 0.00137 | Q 0.00121 | M 0.000286 | A 0.0039 | N 0.000705 | H 0.00014 | P 0.0034 | D 0.00103 | R 0.00105 | Y 9.03e-05 | G 0.000416
chain 1 T5: W 4.49e-05 | L 0 | F 0.000105 | Y 8.75e-05 | S 4.81e-05 | E 0.000584 | R 0 | V 0.00155 | N 0.000128 | Q 0.00106 | H 5.61e-05 | I 0.000118 | K 0 | D 0
chain 1 Y10: W 0.00022 | F 6.96e-05 | R 0
chain 1 D6: Y 3.05e-05
chain 1 E14: W 2.8e-05 | Q 0.000195 | A 0.00053 | D 0.00114 | G 0.00107 | F 9.64e-05 | T 0.000246 | S 6.5e-05 | H 9.43e-05 | L 6.19e-05 | K 0.000193 | V 3.45e-05 | P 0.00048
chain 1 L13: G 0.000105 | N 6.62e-05 | P 0.000483 | V 4.1e-05 | K 0.00129 | I 0.00223 | Q 0.000253 | S 0.0004 | A 0.0028 | T 0.000339 | Y 0 | R 0.000367 | H 2.74e-05 | D 3.05e-05 | E 5.82e-05 | M 0.00103
chain 1 F4: T 0 | W 0.00189
chain 1 I3: H 4.16e-05 | D 0.0027 | F 0.0002 | L 0.00133 | A 2.4e-05 | E 0.00388 | Y 0.000244 | T 0.00253 | M 0.000353 | N 0.00121 | V 0.00384 | K 0.00351 | W 0.000147 | R 0.00161 | Q 0.00339 | G 0.000109 | S 0.000211
chain 1 L9: T 2.4e-05 | V 0.000711 | G 0.000626 | A 0.00044 | D 0 | I 0.000157 | N 0 | R 0 | M 4.46e-05
chain 1 S7: D 0 | N 0.000778 | T 6.44e-05 | A 0

From PMC12102759
